Reference: article doi:10.1101/2020.10.06.327809 (bioRxiv, 2020)

Biological target: the molecule itself
Experiment: SEC

B1: SepF-His (H. volcanii SepF expressed in E. coli, plasmid pSVA3969) (natural protein, Haloferax volcanii, UniProt D4H018 1-118, looked up)
chain: MGIMSKILGGGGSRTTEDYVELDLDDFDTARGDAGLSVHIAEIGGQQDVIAIKDAVYDGNLVIADITRHTTSDSTMEHIIDDLRQVAREVDGDIVQKGDDQIVITPTGISISRQKLNG
stoichiometry N: 2
